Here are results for seven molecules from US20110059063A1 (Amgen, published 2011).

To fix the notation:
B1: anti-PAR-2 antibody 1A1 (antibody, V domains shown)
VH: EVQLVQSGAEVKKPGESLKISCKGSGYNFISHWIGWVRQMPGKGLEWMGMIYPGDSDTRYSPSFQGQVTISADKSINTAYLQWRSLKASDTAMYFCARHGGITGTTFYYDFGMDVWGQGTTVTVSS
VL: SYELTQPPSVSVSPGQTARITCSGDALPKQYASWYQQKPGQAPLLVIYRDSERPSGLPERFSGSSSGTTVTLTISGVQAEDEADYYCQSADSGGSYVFGTGTKVTVL
notes: Human antibody from a XenoMouse hybridoma; also called monoclonal antibody 1A1
B2: anti-PAR-2 antibody 12D5 (antibody, V domains shown)
VH: QVQLQQSGPGLVKPSQTLSLTCAISGDSVSSNRAAWNWIRQSPSRGLEWLGRTYYRSKWYNDFAVSVRSRITITPDTSKNQFSLQLNSVTPEDTAVYYCARDRNSGYYYYGLDVWGQGTTVTVSS
VL: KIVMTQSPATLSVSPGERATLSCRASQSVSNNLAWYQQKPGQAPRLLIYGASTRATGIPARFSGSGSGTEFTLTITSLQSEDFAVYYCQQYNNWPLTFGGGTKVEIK
B3: anti-PAR-2 antibody 13F2 (antibody, V domains shown)
VH: B2 VH with F63H, R68K, T94K
VL: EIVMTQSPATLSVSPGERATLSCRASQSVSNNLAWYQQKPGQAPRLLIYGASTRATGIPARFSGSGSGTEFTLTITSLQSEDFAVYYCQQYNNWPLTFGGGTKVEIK
B4: anti-PAR-2 antibody 2C6 (antibody, V domains shown)
VH: QVQLVQSGAEVKKPGASVKVSCKASGYTFTGYFFHWVRQAPGQGLEWVGWINPNSGATHFAQKFQGRVTMTRDTSISTAYMELSRLRSDDTAVYYCARDGSNWNRDYGMDVWGQGTTVTVSS
VL: QSVLTQPPSASGTPGQRVTISCSGSSSNIGINHVYWYQQLPGTAPKIFIYRNNQRPSGVPDRFSGSKSGTSASLAISGLRSEDEADYYCAVWDDSLSGVVFGGGTKLTVLG
B5: anti-PAR-2 antibody 1B5 (antibody, V domains shown)
VH: EVQLVQSGAEVKKSGESLKISCKGSGYSFSNYWIGWVRQMPGKGLEWMGIIYPGDSDTRYSPSFQGQVTISADKSIRTAYLQWSSLKASDTAMYYCARHKGITGTTFYYDYGMDVWGQGTTVTVSS
VL: B1 VL with D25E, L44V, S51T, L57I, G93N, S95A, K103R
notes: Human antibody from a XenoMouse hybridoma
B6: anti-PAR-2 antibody 1C7 (antibody, V domains shown)
VH: B5 VH with S14P, S30T, N31S
VL: B1 VL with D25E, L44V, R49K, L57I, G93N, S95A
notes: as for B5
B7: anti-PAR-2 antibody 9B12 (antibody, V domains shown)
VH: QVQLVESGGGVVQPGRSLRLSCAASGFTFSSYGMHWVRQAPGKGLEWVAVIWYDGSNKYYADSVKGRFTISRDNSKNTLYLQMNSLRAEDTAVYYCARDLGAAAGTGFDYWGQGTLVTVSS
VL: QSVLTQPPSVSAAPGQKVTISCSGSSSNIGNNYVSWYQQLPGTAPKLLIYDNNKRPSGIPDRFSGSKSGTSATLGITGLQTGDEADYYCGTWDSSLSAGVVFGGGTKLTVL

Numbering of substitutions follows the chain as printed.

The first experiment concerns the target T1, cell surface expressed human PAR-2 (human, UniProt P55085 25-397).
T1 sequence: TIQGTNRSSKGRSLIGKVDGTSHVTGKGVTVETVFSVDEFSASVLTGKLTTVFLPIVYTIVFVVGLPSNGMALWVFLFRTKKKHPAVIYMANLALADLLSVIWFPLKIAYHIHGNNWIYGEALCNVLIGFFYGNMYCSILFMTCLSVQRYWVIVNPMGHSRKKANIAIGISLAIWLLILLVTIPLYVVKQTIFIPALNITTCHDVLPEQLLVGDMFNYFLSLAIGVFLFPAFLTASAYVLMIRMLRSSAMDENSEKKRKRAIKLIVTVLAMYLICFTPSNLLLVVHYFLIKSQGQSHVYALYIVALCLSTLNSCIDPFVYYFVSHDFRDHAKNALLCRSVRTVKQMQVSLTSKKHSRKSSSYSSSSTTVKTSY
As to the kind of experiment: KinExA, cells expressing human PAR-2, averaged for N=5 experiments; antibody 1A1; N=5 experiments. An excerpt: This example describes the analysis of the binding properties of PAR-2 antigen-binding proteins to cell surface expressed PAR-2 utilizing a Kinetic Exclusion Assay which measures binding events in solution phase and can be used to calculate KD, Kₒₙ and Koff (KinExA®; Sapidyne Instruments, Boise, Id.), substantially as described previously by Xie et. al. J. Imm, Methods 304:1 (2005) and Rathanaswami et. al. Anal. Biochem. 373:52 (2008). Briefly, serial dilutions of cells expressing human PAR-2 (for example, CHO transfectants expressing human PAR-2 at the cell surface, obtainable by transfecting CHO cells with human full length PAR-2 cDNA encoding a polypeptide of SEQ ID NO:2) and control cells (i.e., non-transfected CHO cells) in a modified DMEM medium (phenol red free containing 10% heat inactivated FBS, 0.1 mM MEM non-essential amino acids, 1 mM sodium pyruvate, penicillin-streptomycin-glutamine, and 0.025% (w/w) sodium azide) are incubated with set amounts of antibody for 24 to 36 hours at 4 C with rotation. […] The free mAb is measured by KinExA® using the appropriate capture beads and Cy5-conjugated anti-human secondary antibodies, as described by Rathanaswami et al. Biochem Biophys Research Commun:1004 (2005). […]
The KD of certain PAR-2 antibodies was determined in this manner.
Usually Kd stands for a measure of binding affinity in units of concentration. Higher therefore signals a looser complex. In the case of B1, the Kd was 0.0628 nM.

A further experiment deals with PAR-2 (on the cells of the FLIPR Ca2+ mobilization assay). The experiment is described as follows: cell-based or functional assay.
PAR-2 (on the cells of the FLIPR Ca2+ mobilization assay), sequence (P55085 whole entry): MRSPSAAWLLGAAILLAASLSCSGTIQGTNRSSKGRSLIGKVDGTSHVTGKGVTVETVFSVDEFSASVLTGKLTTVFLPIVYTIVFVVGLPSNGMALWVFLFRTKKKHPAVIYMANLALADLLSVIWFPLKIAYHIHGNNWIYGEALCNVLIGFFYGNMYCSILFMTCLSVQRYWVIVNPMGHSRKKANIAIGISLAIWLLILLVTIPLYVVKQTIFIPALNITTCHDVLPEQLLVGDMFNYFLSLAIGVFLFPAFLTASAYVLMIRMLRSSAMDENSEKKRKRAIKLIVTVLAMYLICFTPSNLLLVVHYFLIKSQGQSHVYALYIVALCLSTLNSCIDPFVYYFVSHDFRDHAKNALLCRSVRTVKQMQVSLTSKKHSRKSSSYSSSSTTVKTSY
For B2, the “IC50, FLIPR assay for Ca2+ mobilization” value is over 1000 nM.

B3: the “IC50, FLIPR assay for Ca2+ mobilization” value was over 1000 nM.

Turning to B4, the “IC50, FLIPR assay for Ca2+ mobilization” value is over 1000 nM.

As for B1, the “IC50, FLIPR assay for Ca2+ mobilization” value was determined as 2 nM.

In the case of B5, the “IC50, FLIPR assay for Ca2+ mobilization” value came out at 3 nM.

Turning to B6, the “IC50, FLIPR assay for Ca2+ mobilization” value worked out at 3 nM.

For the molecule B7, the “IC50, FLIPR assay for Ca2+ mobilization” value was over 1000 nM.

The target in another experiment is T2, clipped N-terminal PAR-2/Fc polypeptide (human).
T2 construct: also called truncated amino-terminal PAR-2-Fc; cleaved PAR-2/Fc
As to the kind of experiment: Western blot; by the footnote, an upstream binder binds only the full-length PAR-2/Fc. An excerpt:
To analyze binding to uncleaved versus cleaved PAR-2, various amounts of purified uncleaved and clipped N-terminal PAR2-Fc are subjected to SDS-PAGE using 8-16% polyacrylamide gradient gels (Novex gels, Invitrogen Life Technologies) in a Tris-Glycine buffer system. Gel lanes containing See Blue standards (Novex, Invitrogen Life Technologies) for molecular weight identification are also included. Following electrophoresis, proteins are transferred from gels onto nitrocellulose membranes using a Novex XCell II Blot Module (Invitrogen Life Technologies). Membranes are blocked with 1:1, Odyssey blocking buffer, OBB, (LI-COR Biosciences):TBS (Tris Buffer Saline) overnight at 4 C with shaking. Antibodies to be analyzed are diluted in 1:1 OBB:TBS at a desired final concentration for 1 hr at room temperature. Membranes are washed extensively with 0.1% Tween 20 in TBS (3-4 changes of 100 ml over ˜1 hr). Membranes are then exposed to the appropriate secondary antibody-Alexa680 (Molecular Probes, Invitrogen Life Technologies) conjugate (goat anti-rabbit IgG, or goat anti-mouse IgG) diluted 1:5000 in 1:1 (OBB:TBS) for 1 hr at room temperature. Membranes are washed as described above, and if desired, analyzed using a LI-COR Odyssey Infrared Imaging System (LI-COR Biosciences).
Several PAR-2 antibodies were tested in different assay formats; Table 2 summarizes the results. IC₅₀ values were determined in a FLIPR assay for Ca2+ mobilization described previously; binding to the upstream region of the cleavage site versus the downstream region of the cleavage site was determined using the Western blot assay described previously.
Background: In western blotting, separated proteins are transferred to a membrane and probed.
Regarding B1, the binding result is reported as “no binding”.

In the case of B5, the binding result is listed as “no binding”.

On to B6, for which the binding result is “no binding”.
